# Publication PMC11809610
# T1: CD95 (full-length protein, amino acids 1 to 335) fused C-terminally to mEGFP or mCherry (human (from the printed accession)), P25445
# T1 chain: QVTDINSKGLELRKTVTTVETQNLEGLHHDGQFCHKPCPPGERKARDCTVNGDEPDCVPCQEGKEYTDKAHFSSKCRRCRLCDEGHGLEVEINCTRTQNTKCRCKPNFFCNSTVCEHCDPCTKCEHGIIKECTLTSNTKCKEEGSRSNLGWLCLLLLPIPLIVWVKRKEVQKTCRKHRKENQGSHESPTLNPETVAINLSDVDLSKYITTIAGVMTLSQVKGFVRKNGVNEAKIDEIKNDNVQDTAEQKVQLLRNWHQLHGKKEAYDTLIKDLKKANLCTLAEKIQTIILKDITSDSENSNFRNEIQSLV
# B1: CD95 (full-length protein, amino acids 1 to 335) fused C-terminally to mEGFP or mCherry, P25445 26-335 (receptor)
# chain: T1 chain
# Legend:
# [1] = biological target: CD95 (full-length protein, amino acids 1 to 335) fused C-terminally to mEGFP or mCherry (human (from the printed accession)) (UniProt P25445)
# [2] = biological target: T1, CD95 (full-length protein, amino acids …); assay: FRET or BRET; CELFIS (FRET-FLIM, donor lifetime, x_FRET for each cell) in live HeLa CD95^KO cells with bicistronic mCherry/mEGFP plasmids; no ligand; evaluated from 30 up to 1000 receptors/μm^2; 37°C; settings: remark: other sources report otherwise
# [3] = biological target: T1, CD95 (full-length protein, amino acids …); assay: FRET or BRET; CELFIS (FRET-FLIM) in live HeLa CD95^KO cells with bicistronic mCherry/mEGFP plasmids; after addition of CD95L (200 ng/ml with enhancer); repeated measurements up to 6 hours; 37°C; settings: remark: other sources report otherwise
Molecule,"percentage of apoptotic cells (time-lapse microscopy, HeLa cells expressing CD95-mEGFP), CD95L 2 to 200 ng/ml (% apoptotic cells) [1]",dimer fraction [2],monomer fraction [2],oligomer fraction with CD95L [3],"oligomer fraction with CD95L, cells that did not show apoptosis, after 4 hours [3]","oligomer fraction with CD95L, cells that underwent apoptosis [3]","oligomer fraction with CD95L, just before apoptosis [3]","oligomerization rate with CD95L, cells that died (% oligomers/hour) [3]","oligomerization rate with CD95L, cells that stayed alive (% oligomers/hour) [3]",x FRET with CD95L [3]
"FasL, soluble (human) (recombinant) (from UniProt P48023 130-281) (ligand)",99,–,–,–,–,–,–,–,–,–
B1,–,< 4%,96%,< 21%,12%,18%,15%,6,2.3,12%
